In assay [1] the test system is E. coli D21f2tolC. Put plainly: Broth microdilution MIC, wild-type rpoC and rpoB. It is filed as cell-based, Escherichia coli. To be noted: LB broth, 16 h at 37° C., lowest concentration inhibiting growth by 95%. As to the method: (§1) Quantitation of Resistance to Sal. Resistance to Sal was quantified by performing broth microdilution assays. Single colonies were inoculated into 3 ml LB broth, and incubated 3-6 h at 37° C. with shaking. Diluted aliquots (2×10^4 cells in 98 μl LB broth; concentrations determined using OD600=1 for 10^9 cells) were dispensed into wells of a 96-well plate, were supplemented with 2 μl of a 2-fold dilution series of Sal in methanol (final concentrations of […], 0.390, 0.195, 0.0975, 0.0488, 0.0244, 0.0122, and 0.00609 μg/ml) or 2 μl of a solvent blank, and were incubated 16 h at 37° C. with shaking. The minimum inhibitory concentration (MIC) was defined as the lowest tested concentration of Sal that inhibited bacterial growth by 95%.
(§2) Quantitation of Cross-Resistance to Rifampin and CBR703. Cross-resistance levels were determined analogously to resistance levels, using 0.12-0.78 μg/ml of rifampin (Sigma, Inc.) and 0.39-25 μg/ml of CBR703 (Maybridge, Inc.).

Assay [2] has as its system E. coli D21f2tolC. In words: Spontaneous resistance frequency by plating on LB agar containing inhibitor. The format is cell-based, Escherichia coli. The note with it: LB agar, each compound at 4×MIC, colonies counted after 24 h at 37° C. An excerpt: Sal-Resistant Mutants Map to RNAP-Subunit Genes. To determine whether Sal kills bacteria by inhibiting RNAP, spontaneous Sal-resistant mutants were isolated, and genes for RNAP subunits in Sal-resistant mutants were PCR-amplified and sequenced (FIG. 3A). Spontaneous Sal-resistant mutants were isolated by plating high-density cultures of E. coli D21f2tolC (˜3×10^9 cells per plate) on agar containing Sal and identifying rare resistant colonies (FIG. 3B). For each Sal-resistant mutant, genomic DNA was prepared, and the genes for the largest RNAP subunit and the second-largest RNAP subunit—rpoC encoding RNAP β′ subunit and rpoB encoding RNAP β subunit were PCR-amplified and sequenced (FIG. 3C).
Co-Administration of Sal and Rifampin Reduces Spontaneous Resistance to Undetectable Levels.
Co-Administration of Sal and CBR703 Reduces Spontaneous Resistance to Undetectable Levels.
(§3) Isolation of Sal-Resistant Mutants: Spontaneous Sal-Resistant Mutants. E. coli D21f2tolC (6) was cultured to saturation in 5 ml LB broth (7) at 37° C., cultures were centrifuged, and cell pellets (˜3×10^9 cells) were re-suspended in 50 μl LB broth and plated on LB agar (7) containing 1.2 μg/ml Sal (a concentration four times the minimal concentration required to prevent growth of wild-type cells under these conditions), and incubated 24-48 h at 37° C. Sal-resistant mutants were identified by the ability to form colonies on this medium and were confirmed by re-streaking on the same medium.

The test system of assay [3] is Sal-resistant mutants of E. coli D21f2tolC (rpoC / rpoB substitutions). Put plainly: Broth microdilution resistance / cross-resistance levels of spontaneous Sal-resistant mutants. The format is cell-based, Escherichia coli. The note with it: for cross-resistance level (MIC/MICwild-type): values <1 = hypersensitivity; for cross-resistance of Sal-resistant mutants (in words): broth microdilution (Table 4). As for the experimental part:
as §3, §1, §2

Assay [4] deals with E. coli RNAP, β subunit 526 His→Tyr (Escherichia coli) (UniProt P0A8T7). Put plainly: cell-based or functional assay.
Assay [5] concerns the target E. coli RNAP, β subunit 665 Ala→Glu (Escherichia coli) (UniProt P0A8T7). Put plainly: cell-based or functional assay.
Assay [6] concerns the target E. coli RNAP, β subunit 561 Ile→Ser (Escherichia coli) (UniProt P0A8T7). Put plainly: cell-based or functional assay.
For assay [7], the target named is E. coli RNAP, β′ subunit 783 Leu→Arg (Escherichia coli) (UniProt P0A8T7). Put plainly: cell-based or functional assay.
The target in assay [8] is E. coli RNAP, β′ subunit 738 Arg→His (Escherichia coli) (UniProt P0A8T7). Put plainly: cell-based or functional assay.
The target of assay [9] is E. coli RNAP, β′ subunit 738 Arg→Pro (Escherichia coli) (UniProt P0A8T7). Put plainly: cell-based or functional assay.
Assay [10] has as its target E. coli RNAP, β subunit 675 Asp→Ala (Escherichia coli) (UniProt P0A8T7). In words: cell-based or functional assay.
Assay [11] concerns the target E. coli RNAP, β′ subunit 758 Pro→Thr (Escherichia coli) (UniProt P0A8T7). In words: cell-based or functional assay.
Assay [12] has as its target E. coli RNAP, β′ subunit 690 Asn→Asp (Escherichia coli) (UniProt P0A8T7). In words: cell-based or functional assay.
Assay [13] deals with E. coli RNAP, β subunit 569 Ile→Ser (Escherichia coli) (UniProt P0A8T7). In words: cell-based or functional assay.
Assay [14] concerns the target E. coli RNAP, β′ subunit 775 Ser→Ala (Escherichia coli) (UniProt P0A8T7). In words: cell-based or functional assay.
In assay [15] the target is E. coli RNAP, β′ subunit 780 Arg→Cys (Escherichia coli) (UniProt P0A8T7). Put plainly: cell-based or functional assay.
The target of assay [16] is E. coli RNAP, β subunit 516 Asp→Val (Escherichia coli) (UniProt P0A8T7). In words: cell-based or functional assay.
Assay [17] has as its target E. coli RNAP, β′ subunit 738 Arg→Cys (Escherichia coli) (UniProt P0A8T7). Put plainly: cell-based or functional assay.
For assay [18], the target named is E. coli RNAP, β subunit 677 Asn→His (Escherichia coli) (UniProt P0A8T7). In words: cell-based or functional assay.
In assay [19] the target is E. coli RNAP, β′ subunit 697 Met→Val (Escherichia coli) (UniProt P0A8T7). Put plainly: cell-based or functional assay.
Assay [20] has as its target E. coli RNAP, β′ subunit 758 Pro→Ser (Escherichia coli) (UniProt P0A8T7). Put plainly: cell-based or functional assay.
Assay [21] has as its target Escherichia coli RNA polymerase with wild-type rpoC and wild-type rpoB, in E. coli D21f2tolC (Escherichia coli) (UniProt P0A8T7). Put plainly: cell-based or functional assay.
For assay [22], the target named is E. coli RNAP, β subunit 531 Ser→Leu (Escherichia coli) (UniProt P0A8T7). In words: cell-based or functional assay.
The target in assay [23] is E. coli RNAP, β subunit 680 Leu→Met (Escherichia coli) (UniProt P0A8T7). Put plainly: cell-based or functional assay.
Assay [24] deals with E. coli RNAP, β′ subunit 738 Arg→Ser (Escherichia coli) (UniProt P0A8T7). In words: cell-based or functional assay.
The target of assay [25] is E. coli RNAP, β′ subunit 779 Ala→Thr (Escherichia coli) (UniProt P0A8T7). In words: cell-based or functional assay.
The target of assay [26] is E. coli RNAP, β′ subunit 782 Gly→Cys (Escherichia coli) (UniProt P0A8T7). Put plainly: cell-based or functional assay.
Assay [27] deals with E. coli RNAP, β subunit 677 Asn→Lys (Escherichia coli) (UniProt P0A8T7). Put plainly: cell-based or functional assay.
In assay [28] the target is E. coli RNAP, β′ subunit 748 Ala→Glu (Escherichia coli) (UniProt P0A8T7). Put plainly: cell-based or functional assay.
Assay [29] addresses E. coli RNAP, β′ subunit 763 Phe→Cys (Escherichia coli) (UniProt P0A8T7). In words: cell-based or functional assay.
Assay [30] deals with E. coli RNAP, β′ subunit 779 Ala→Val (Escherichia coli) (UniProt P0A8T7). In words: cell-based or functional assay.
Assay [31] concerns the target E. coli RNAP, β subunit 526 His→Asp (Escherichia coli) (UniProt P0A8T7). In words: cell-based or functional assay.

In brackets after ≈: the same amount, converted by molar mass. Entries after “also recorded” stand apart in the source; their conditions may differ. Marks after values point to notes of the source that are not given here.

Consider `ONC(=Nc1ccccc1)c1cccc(C(F)(F)F)c1` [CBR703], for which the “MIC with wild-type rpoC and wild-type rpoB” value in the assay with E. coli D21f2tolC [1] was found to be 6.25 µg/mL. In addition, the spontaneous resistance frequency with E. coli D21f2tolC [2] is given as 2×10^−10. The “cross-resistance level (MIC/MICwild-type)” value in [3] (Sal-resistant mutant rpoB (RNAP β subunit) 569 Ile→Ser) is recorded as 1; in [3] (Sal-resistant mutant rpoB (RNAP β subunit) 675 Asp→Ala), “≦0.25”; in [3] (Sal-resistant mutant rpoB (RNAP β subunit) 677 Asn→His), 1; in assay [3] (Sal-resistant mutant rpoB (RNAP β subunit) 677 Asn→Lys), “≦0.25”; in [3] (Sal-resistant mutant rpoC (RNAP β′ subunit) 690 Asn→Asp) it was “≦0.25^b”; in assay [3] (Sal-resistant mutant rpoC (RNAP β′ subunit) 697 Met→Val), 0.5. The “cross-resistance level (MIC/MICwild-type)” value in assay [3] (Sal-resistant mutant rpoC (RNAP β′ subunit) 738 Arg→Cys) is recorded as “≦0.25”; in assay [3] (Sal-resistant mutant rpoC (RNAP β′ subunit) 738 Arg→Pro), “≦0.25”; in [3] (Sal-resistant mutant rpoC (RNAP β′ subunit) 738 Arg→Ser), 1; in assay [3] (Sal-resistant mutant rpoC (RNAP β′ subunit) 748 Ala→Glu) it was “≦0.25”; in assay [3] (Sal-resistant mutant rpoC (RNAP β′ subunit) 763 Phe→Cys), “≦0.25”; in assay [3] (Sal-resistant mutant rpoC (RNAP β′ subunit) 779 Ala→Thr), 1. Further, the results for the “cross-resistance level (MIC/MICwild-type)” value in assay [3] (Sal-resistant mutant rpoC (RNAP β′ subunit) 779 Ala→Val) and in assay [3] (Sal-resistant mutant rpoC (RNAP β′ subunit) 780 Arg→Cys) were “≦0.25” and 0.5, respectively. Moreover, in [3], the “cross-resistance of Sal-resistant mutants (in words)” value is listed as “no cross-resistance”.

As for `CO[C@H]1/C=C/O[C@@]2(C)Oc3c(C)c(O)c4c(O)c(c(/C=N/N5CCN(C)CC5)c(O)c4c3C2=O)NC(=O)/C(C)=C\C=C\[C@H](C)[C@H](O)[C@@H](C)[C@@H](O)[C@@H](C)[C@H](OC(C)=O)[C@@H]1C` [rifampin], it took 0.098 µg/mL (≈ 0.119 µM) to inhibit growth in the assay on E. coli D21f2tolC [1] (Escherichia coli, D21F2TOLC) (MIC). The spontaneous resistance frequency in the assay on E. coli D21f2tolC [2] is on record as 1×10^−8; in the assay with E. coli D21f2tolC [2] (listed as Rif), 1 × 10^−8. Besides, the “cross-resistance of Sal-resistant mutants (in words)” value in assay [3] is reported as “not cross-resistant; also recorded: no cross-resistance”. In addition, in assay [3] ({}), the “hypersensitivity of Sal-resistant mutants” value is recorded as 2 fold.

salinamide A (peptide): the cross-resistance level (MIC/MICwild-type) to Sal (MIC/MICwild-type) in [4], in assay [16], in assay [22] and in assay [31] was 1 throughout. For the same molecule, the resistance level (MIC/MICwild-type), plasmid-borne rpoB (MIC/MICwild-type) in assay [5] came to 8; in assay [6], 2; in [23], 4. The resistance level (MIC/MICwild-type) (MIC/MICwild-type) was > 16 in assay [7]; > 16 in [8]; > 16 in assay [9]; > 16 in [10]; 16 in assay [12]; > 16 in assay [13]. The resistance level (MIC/MICwild-type) (MIC/MICwild-type) in assay [14] is 8; in assay [15], > 16; in [17], > 16; in [18], > 16; in assay [19], > 16; in assay [20], 16. The resistance level (MIC/MICwild-type) (MIC/MICwild-type) in [24] was > 16; in assay [25], > 16; in assay [27], > 16; in assay [28], 16; in [29], 16; in assay [30] it was > 16. The figures for the resistance level (MIC/MICwild-type), plasmid-borne rpoC (MIC/MICwild-type) in assay [11], in assay [15] and in [26] were 4, 8 and 8, respectively. In addition, the MIC (broth microdilution, D21f2tolC pRL663 and D21f2tolC pRL706 derivatives) in assay [21] turned out to be 0.098 µg/ml. The MIC (broth microdilution, E. coli D21f2tolC) in [21] is 0.024 µg/mL.

The record behind these values is patent US9060970B2, “Bridge-helix cap: target and method for inhibition of bacterial RNA polymerase” (priority 2011, dated 2015).
